{
  "source": "patent US10357573B2",
  "about": "“Block copolymer conjugate of physiologically active substance” (Nippon Kayaku Kabushiki Kaisha, priority 2015, dated 2019)",
  "key": {"[1]": {"test": "Light scattering intensity of 1 mg/mL aqueous solution, relative to toluene", "type": "physicochemical", "experimental": "Regarding the measurement sample for the scattering intensity measurement, a solution obtained by adding ultrapure water to a physiologically active substance-conjugated block copolymer to obtain a concentration of 1 mg/mL, dissolving the block copolymer by irradiating the mixture with ultrasonic waves for 10 minutes under ice cooling, and then filtering the solution through a 0.2-μm membrane filter, was used.\nToluene (manufactured by Junsei Chemical Co., Ltd., special grade) that was used for the measurement of the light scattering intensity, was used after being filtered three times through a 0.2-μm membrane filter."}, "[2]": {"tested_on": "human pancreatic cancer BxPC3", "test": "Test Example C-1 intratumor distribution test", "type": "in vivo, nude mouse", "settings": "5 mg/kg as converted to 2-(2-aminoethoxy)-9-(diethylamino)-5H-benzo[a]phenoxazin-5-one, iv once, one hour after administration", "source_text": "(§1) A tumor mass of human pancreatic cancer BxPC3 that had been subcultured by subcutaneous transplantation in a BALB/c nude mouse was cut into a block having a size of about 3 mm on each side, and this block was subcutaneously transplanted on the dorsal side of a nude mouse using a trocar. […] One hour after the administration, blood was removed from the mouse under isoflurane anesthesia, frozen embedded slices of the removed tumor and the kidneys were produced, and fluorescence was observed."}, "[3]": {"test": "Test Example C-1 intrarenal distribution test", "type": "in vivo, nude mouse", "settings": "5 mg/kg as converted to 2-(2-aminoethoxy)-9-(diethylamino)-5H-benzo[a]phenoxazin-5-one, iv once, one hour after administration", "source_text": "as §1"}, "[4]": {"tested_on": "human colorectal cancer Col-5-JCK and Co-3-KIST, human breast cancer MC-19-JCK", "settings": "75 or 50 mg/kg as converted to Ganetespib, iv once, compared to Comparative Example B-1", "experimental": "The tumor volume was determined by measuring the major axis (L: mm) and the minor axis (W: mm) of the tumor, and calculating the volume by the calculation formula: (L×W^2)/2."}, "[5]": {"tested_on": "human pancreatic cancer BxPC3", "test": "Test Example A-1 intratumor distribution test", "type": "in vivo, nude mouse", "settings": "50 mg/kg as converted to 7-ethyl-10-hydroxycamptothecin, iv once, 30 minutes after administration", "source_text": "Thirty minutes after the administration, blood was removed from the mouse under isoflurane anesthesia, frozen embedded slices of the removed tumor were produced, and fluorescence was observed."}, "[6]": {"test": "Test Example A-2 intrarenal distribution test", "type": "in vivo, C.B-17SCID mouse", "settings": "50 mg/kg as converted to 7-ethyl-10-hydroxycamptothecin, iv once, 30 minutes after administration"}},
  "data": [
    {"substance": "2-(2-aminoethoxy)-9-(diethylamino)-5H-benzo[a]phenoxazin-5-one Conjugate of polyethylene glycol (2 Kilodaltons)-α,β-polyaspartic Acid (12.5 Polymer) Block Copolymer [Comparative Example C-3]", "values": [
      {"measurement": "relative ratio between the light scattering intensity and the light scattering intensity of toluene", "setting": "[1]; 1 mg/mL aqueous solution vs standard toluene solution under the same conditions", "value": "less than twice"},
      {"measurement": "self-association in aqueous solution", "setting": "[1]; aqueous solution", "value": "non-associating"},
      {"measurement": "tissue distribution in tumor slices (fluorescence)", "setting": "[2]", "value": "migration and accumulation in the tumor tissue was low"},
      {"measurement": "tissue distribution in kidney slices (fluorescence)", "setting": "[3]", "value": "fluorescence was observed in the renal tubules"}
    ]},
    {"substance": "4-isopropyl-6-(4-(1-methyl-1H-indol-5-yl)-5-methylene-4,5-dihydro-1H-1,2,4-triazol-3-yl)benzene-1,3-diol Conjugate of polyethylene glycol (2 Kilodaltons)-polyglutamic Acid (7.9 Polymer) Block Copolymer [Example B-1]", "values": [
      {"measurement": "antitumor effect", "setting": "[4]", "value": "superior effect in both subcutaneous tumor models at the same dose"}
    ]},
    {"substance": "7-ethyl-10-hydroxycamptothecin (EHC) and 2-(2-aminoethoxy)-9-(diethylamino)-5H-benzo[a]phenoxazin-5-one Conjugate of polyethylene glycol (2 Kilodaltons)-polyglutamic Acid (7.6 Polymer) Block Copolymer [Example A-4]", "values": [
      {"measurement": "tissue distribution in tumor slices (fluorescence)", "setting": "[5]", "value": "could penetrate into deep parts of a tumor tissue"},
      {"measurement": "tissue distribution in kidney slices (fluorescence)", "setting": "[6]", "value": "fluorescent signals were observed in the blood vessels and the renal tubules of the kidneys"}
    ]},
    {"substance": "7-ethyl-10-hydroxycamptothecin (EHC) and 2-(2-aminoethoxy)-9-(diethylamino)-5H-benzo[a]phenoxazin-5-one Conjugate of polyethylene glycol (12 Kilodaltons)-polyglutamic Acid (25 Polymer) Block Copolymer [Comparative Example A-4, reference compound]", "values": [
      {"measurement": "tissue distribution in tumor slices (fluorescence)", "setting": "[5]", "value": "did not penetrate into deep parts of the tumor tissue"},
      {"measurement": "tissue distribution in kidney slices (fluorescence)", "setting": "[6]", "value": "fluorescence was not recognized in areas other than the blood vessels of the kidneys"}
    ]}
  ]
}
